Results on one molecule are retold here after article PMC9022034.

This assay deals with T1, CBM3a (family IIIa carbohydrate binding module) of the cellulosomal scaffolding protein CipC (Clostridium cellulolyticum (Ruminiclostridium cellulolyticum) H10).
T1 chain: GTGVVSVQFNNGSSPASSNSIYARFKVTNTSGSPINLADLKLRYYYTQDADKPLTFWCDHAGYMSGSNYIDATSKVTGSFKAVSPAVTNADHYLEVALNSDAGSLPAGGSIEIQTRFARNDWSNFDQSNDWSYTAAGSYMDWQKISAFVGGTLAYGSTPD
Nature of the assay: ITC. To be noted: domain or fragment; C-terminal His6 tag omitted. Limits not printed and no X2 feature in the entry: estimated from the CipC module order (CBM3a-X2-Coh1..7-X2-Coh8) and the ~95-aa X2 size (1EHX is the X2-N homologue). Both edges are uncertain by about 10 residues; the segment should contain the NGNT motif. Methods sometimes call this protein X2-N, but Results state X2-C was used in vitro. / C-terminal His6 tag omitted; modification not given.

B1: X2-C module of the cellulosomal scaffolding protein CipC (protein)
chain: VGDVTPVNPTITPSTASFDKYVPANVNVTLTPNGNTFKGITGLTSGTDFTVSNNVVTISKSYLSTLAVGSKTLTFDFGVTNNPVLTLTITDSTPVV
On to B1, for which the Ka is 80200 M⁻¹.
